Experimental data: US20040132094A1 (ANAPHORE, published 2004)

Molecular target: T1, bovine serum albumin (bovine, UniProt P02769 25-607)
T1 construct: Control coating; also called BSA
Assay: phage ELISA on coated BSA, HRP anti-phage detection
Method: Recombinant phages were isolated by precipitation with poly(ethylene glycol) (PEG 8000) and samples of Phtlec and PhTN3 phage preparations as well as a sample of helper phage were subjected to an ELISA-type sandwich assay, in which wells of a Maxisorb (Nunc) multiwell plate were first incubated with anti-human tetranectin or bovine serum albumin (BSA) and blocked in skimmed milk or skimmed milk/EDTA. Briefly, cultures of pPhtlec and pPhTN3 phagemid transformed TG1 cells were grown at 37° C. in 2×TY-medium supplemented with 2% glucose and 100 mg/L ampicillin until A₆₀₀ reached 0.5. By then the helper phage, M13K07, was added to a concentration of 5×10⁹ pfu/mL. The cultures were incubated at 37° C. for another 30 min before cells were harvested by centrifugation and resuspended in the same culture volume of 2×TY medium supplemented with 50 mg/L kanamycin and 100 mg/L ampicillin and transferred to a fresh set of flasks and grown for 16 hours at 25° C. Cells were removed by centrifugation and the phages precipitated from 20 mL culture supernatant by the addition of 6 mL of ice cold 20% PEG 8000, 2.5 M NaCl. After mixing the solution was left on ice for one hour and centrifuged at 4° C. to isolate the precipitated phages. […] Phages in the wells were detected after incubation with HRP-conjugated anti-phage conjugate (Amersham Pharmacia, code no. 27-9421-01) followed by further washing.

T1 sequence (P02769 25-607 limits assumed): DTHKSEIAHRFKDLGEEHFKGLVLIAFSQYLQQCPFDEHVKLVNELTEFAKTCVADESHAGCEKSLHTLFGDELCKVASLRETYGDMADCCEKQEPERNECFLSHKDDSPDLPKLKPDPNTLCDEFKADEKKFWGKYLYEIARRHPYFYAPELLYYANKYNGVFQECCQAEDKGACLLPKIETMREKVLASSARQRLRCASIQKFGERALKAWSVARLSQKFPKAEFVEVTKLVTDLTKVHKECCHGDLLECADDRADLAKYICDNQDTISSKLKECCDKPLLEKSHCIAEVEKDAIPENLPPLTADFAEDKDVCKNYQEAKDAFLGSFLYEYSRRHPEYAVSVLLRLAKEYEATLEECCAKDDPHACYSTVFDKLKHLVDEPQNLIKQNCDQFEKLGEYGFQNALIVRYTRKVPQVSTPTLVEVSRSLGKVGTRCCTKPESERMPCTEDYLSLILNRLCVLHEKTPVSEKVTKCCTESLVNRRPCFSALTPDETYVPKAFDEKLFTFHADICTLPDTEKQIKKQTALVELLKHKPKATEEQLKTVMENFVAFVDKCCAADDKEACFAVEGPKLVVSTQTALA

B1: Phtlec phage (Phtlec-gene III fusion protein displayed on recombinant phage) (other)
chain: PAMAEPPTQKPKKIVNAKKDVVNTKMFEELKSRLDTLAQEVALLKEQQALQTVVLKGTKVHMKVFLAFTQTKTFHEASEDCISRGGTLSTPQTGSENDALYEYLRQSVGNEAEIWLGLNDMAAEGTWVDMTGTRIAYKNWETEITAQPDGGKTENCAVLSGAANGKWFDKRCRDQLPYICQFGIVA
notes: Tested as whole phage particles rescued with M13KO7; claim 15 says htlec itself is position 5 Glu to 185 Val of it; also called human Phtlec phages; Phlec; not shown: phage gene III protein fused after the Phtlec part, as encoded by phagemid pCANTAB 5E; limits and any tag in between not
B1: no binding.

B2: PhTN3 phage (PhTN3-gene III fusion protein displayed on recombinant phage) (other)
chain: PAMAALQTVCLKGTKVHMKCFLAFTQTKTFHEASEDCISRGGTLSTPQTGSENDALYEYLRQSVGNEAEIWLGLNDMAAEGTWVDMTGARIAYKNWETEITAQPDGGKTENCAVLSGAANGKWFDKRCRDQLPYICQFGIVA
notes: Tested as whole phage particles rescued with M13KO7; claim 18 says hTN3 is position 5 Ala to 141 Val of it; also called human PhTN3 phages; PhCTLD; not shown: phage gene III protein fused after the PhTN3 part, as encoded by phagemid pCANTAB 5E; limits and any tag in between not
B2: no binding.
